From patent publication US20220112288A1 (published 2022)

Key:
[1] = molecular target: T1, human CD4 on the surface of SKW3 cells or human PBMCs (human, UniProt P01730 26-458); experiment: FACS binning on SKW3 cells; competitor RPA-T4-PE-Dazzle 594 (its signal read); background 783, max binding 15000
T1 construct: whole, on cells; SKW3 CD4 knockout cells served as the negative cell line; also called hCD4; SKW3 WT

[2] = molecular target: T1, human CD4 on the surface of SKW3 cells …; experiment: FACS confirmation, supernatant on human PBMCs, anti-mouse Fc A647, CD4+ gate
huCD4-HIS = molecular target: T2, huCD4-HIS (human, UniProt P01730 26-390, limits assumed); experiment: ELISA binning; competitor ibalizumab; 100 ng/mL huCD4-HIS, anti-HIS HRP detection; background 45, max binding 3000000
T2 construct: not shown: HIS tag

[3] = molecular target: T1, human CD4 on the surface of SKW3 cells …; experiment: FACS binning on SKW3 cells; competitor OKT4-Alexa Fluor 488 (its signal read); background 2163, max binding 8200
[4] = molecular target: T1, human CD4 on the surface of SKW3 cells …; experiment: FACS primary screen, non-clonal hybridoma supernatant, SKW3 vs SKW3 CD4 KO cells, anti-mouse Fc A647
[5] = molecular target: T1, human CD4 on the surface of SKW3 cells …; experiment: FACS confirmation, supernatant on human PBMCs, anti-mouse Fc A647
[6] = molecular target: T1, human CD4 on the surface of SKW3 cells …; experiment: FACS confirmation, supernatant on SKW3 WT cells, anti-human kappa FITC; background gMFI 2500
[7] = molecular target: T1, human CD4 on the surface of SKW3 cells …; experiment: FACS binning on SKW3 cells; competitor OKT4a, anti-human A647 secondary (its signal read); background 5000, max binding 35000
[8] = molecular target: T1, human CD4 on the surface of SKW3 cells …; experiment: FACS confirmation, supernatant on SKW3 WT cells, anti-mouse Fc A647; background gMFI 3300
[9] = molecular target: T1, human CD4 on the surface of SKW3 cells …; experiment: FACS primary screen, non-clonal hybridoma supernatant, SKW3 vs SKW3 CD4 KO cells, anti-human kappa FITC
[10] = molecular target: T3, Recombinant human CD4 (R&D Systems, Cat. 10327-CD) (human, UniProt P01730 26-390, limits assumed); experiment: BLI (Octet Red 384), non-clonal supernatant captured on AMC sensors, 100 nM human CD4
T3 construct: Bought protein; also called huCD4

[11] = molecular target: T3, Recombinant human CD4 (R&D Systems, …); experiment: BLI (Octet Red 384), non-clonal supernatant captured on AMC sensors, 100 nM human CD4, 1:1 local fit;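 also: hybridoma antibodies from supernatants, one CD4 concentration giving single-point kinetics per supernatant, with curves fitted over both association and dissociation phases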

Binder | RPA-T4-PE-Dazzle 594 signal [1] | PBMCs, anti-mFc 647 CD4+ gate - RL1 Binding [2] | Ibalizumab ELISA binning signal (huCD4-HIS) | OKT4 A488 signal [3] | SKW3 WT vs KO anti-mFc-647 [4] [ratio] | PBMCs, anti-mFc 647 CD4+ Percent Bound of Viable [5] [%] | SKW3 WT anti-hu Kappa FITC, gMFI [6] [gMFI] | OKT4a anti-hu A647 Secondary signal [7] | SKW3 WT anti-mFc 647, gMFI [8] [gMFI] | SKW3 WT vs KO anti-hKappa-FITC [9] [ratio] | Response [10] | Kd [11] [nM] | koff [11] [s⁻¹] | kon [11] [M⁻¹ s⁻¹]
75110_04P08A (antibody, V domains shown, Tested here as non-clonal hybridoma supernatant from AlivaMab Mouse Kappa mice (detected with anti-mouse Fc and anti-human kappa)) VH: QVQLQQWGAGLLKPSETLSLTCAVYGGSLSGYYWSWIRQSPGKGLEWIGEINQSGSTNYNPSLKSRVTISVDTSKDQFSLRLTSVTAADTAVYYCTRVLNWFDPWGRGTLVTVSS VL: DIQMTQSPSSVSASVGDRVTLTCRASQDISNWLAWYQQKPGKAPKLLIYAASSLQSGVPSRFSGSGSGTDFTLTISSLQTEDFATYYCQQANSFPYTFGQGTKLEIK | 19900 | 260000 | 1.57e+06 | 9760 | 8.4 | 28 | 7420 | 6060 | 25300 | 3 | – | – | – | –
75110_05B13A (antibody, V domains shown, Tested here as non-clonal hybridoma supernatant from AlivaMab Mouse Kappa mice (detected with anti-mouse Fc and anti-human kappa)) VH: QVLLEQWGAGLLKPSETLSLTCAVYGGSFSGYYWTWIRQPPGKGLEWIGEINHRGSTNYNPSLKSRVTISIDTSKNQFSLKVKSVTAADTAMYYCTRPDSNWFDPWGQGTLVTVSS VL: DIQMTQSPSSVSASVGDRVTITCRASQDISNWLAWYQQKPGKAPKLLIFAASSLQSGVPSRFSGSGSGTDFTLTISSLQPEDFATYYCQQANSFPLTFGGGTKVEIK | 20300 | 228000 | 1.03e+06 | 9670 | 3.1 | 27 | 7310 | 5340 | 26000 | 2.4 | – | – | – | –
75110_04G16A (antibody, V domains shown, Tested as non-clonal AlivaMab Mouse hybridoma supernatant (chimeric: human variable regions and human kappa, mouse Fc, captured by anti-mouse IgG Fc sensors); also called ADS75110 non-clonal supernatant 04G16A) VH: QVQLQESGPGLVKPSQTLSLTCTVSGDSISSGYYYWSWIRQHPGKGLEWIGYISYSGSTYYNPSLKSRLTISVNTSKNQFSLKLSSLTAADTAVYYCARDRPSNFDAFDIWGQGTMVTVSS VL: EIVLTQSPGTLSLSPGERATLSCRASQSVGSTYLAWYQQKPGQAPRLLIYGAFSRATGIPDRFSGSGSGTDFTLTISRLEPEDFAVYYCQQYGSSPLTFGPGTKVDIK | – | – | – | – | – | – | – | – | – | – | 0.15 | 0.95 | 7.1e-05 | 74000
75110_01G11A (antibody, V domains shown, Tested as non-clonal AlivaMab Mouse hybridoma supernatant (human variable regions and human kappa, mouse Fc); also called ADS75110 non-clonal supernatant 01G11A) VH: EVQLVESGGGLVQPGGSLRLSCAASGFTFSSYDMHWVRQATGKGLEWVSTIGTAGDTYYPGSVKGRFTISRENARNSLFLQMNSLRAGDTAVYYCARGGDYYYGMDVWGQGTTVTVSS VL: EIVLTQSPGTLSLFPGERATLSCRASQNTYSSYLAWYQQKPGQAPRLLIYGASNRATGIPDRFSGSGSGTDFTLTISRLEPEDFAVYYCQQHGTSPFTFGPGTKVDIK | – | – | – | – | – | – | – | – | – | – | 0.04 | 5.3 | 0.00025 | 47000
75110_08H11A (antibody, V domains shown, Tested as non-clonal AlivaMab Mouse hybridoma supernatant (human variable regions and human kappa, mouse Fc); also called ADS75110 non-clonal supernatant 08H11A) VH: EVQLVESGGGLVQPGGSLRLSCAASGFTFSSYDMHWVRQATGKGLEWVSTIGTAGDTYYPGSVKGRFTISRENAKNSLYLQMNSLRAGDTAVYYCARGGYSYYGMDVWGQGTTVTVSS VL: EIVLTQSPGTLSLSPGERATLSCGASQSVSSTYLAWYQQKPGQAPRLLIYGASSRATGIPDRFSGSGSGTDFTLTISRLEPEDFAVYYCQQFGSSPFTFGPGTKVDIK | – | – | – | – | – | – | – | – | – | – | 0.08 | 2.9 | 0.00065 | 230000
75110_08H06A (antibody, V domains shown, Tested as non-clonal AlivaMab Mouse hybridoma supernatant (human variable regions and human kappa, mouse Fc); also called ADS75110 non-clonal supernatant 08H06A) VH: EVQLVESGGGLVQPGGSLRLSCAASGFTFSNYDMHWVRQATGKGLEWVSTIGTAGDTYYPGSVKGRFTISRENAKNSLYLQMNSLRAGDTAVYYCARGGYDYYGMDVWGQGTTVTVSS VL: EIVLTQSPGTLSLSPGERATLSCRASQSITSIYLAWYRQKPGQAPRLLIYGASSRATGIPDRFSGSGSGTDFTLTISRLEPEDFAVYYCQQYGSSPFTFGPGTKVDIK | – | – | – | – | – | – | – | – | – | – | 0.06 | < 0.001 | < 1e-07 | 120000
75110_07E04A (antibody, V domains shown, Tested as non-clonal AlivaMab Mouse hybridoma supernatant (human variable regions and human kappa, mouse Fc); also called ADS75110 non-clonal supernatant 07E04A) VH: EVQLVESGGGLVQPGGSLRLSCAVSGFTFSSYDMHWVRQATGKGLEWVSTIGTAGDTYYPGSVKGRFTISRENAKKFLYLQMNSLRAGDTAVYYCARGGYYYYGMDVWGQGTTVTVSS VL: not shown | – | – | – | – | – | – | – | – | – | – | 0.01 | 11000 | 0.013 | 1200
